The target in experiment [1] is Cx36-ECFP (Rattus norvegicus) (UniProt O70610). Nature of the experiment: FRET or BRET; acceptor photobleaching FRET in double transfected Neuro 2a cells fixed with 4% paraformaldehyde; ECFP donor, DsRed acceptor; threshold 1.7% (10 nm); cells untreated or treated before with 2 uM ionomycin or 24 uM BAPTA-AM (10 min), 5 ug/mL BFA (6 h) or 50 uM Dynasore (1 h).
Experiment [2] deals with Cx36-DsRed (Rattus norvegicus) (UniProt O70610). Described as above.

For the substance Cav-1-DsRed (natural protein), in experiment [1], the FRET efficiency was determined as 5.73; the FRET efficiency (cells treated with 2 uM ionomycin) stood at 7.33; the FRET efficiency (cells treated with BFA for 6 h) was found to be 3.76; the FRET efficiency (no treatment, control of the Dynasore experiment) turned out to be 4.

Take Cav-1-ECFP (natural protein): the FRET efficiency in experiment [2] was 5.94.

The values are drawn from publication PMC7432810.
